Tests used:
[1] = target: T1, human B7H3 (CD276) on the cell surface (human, UniProt Q5ZPR3 29-534); assay: flow cytometry on A375 cells (B7H3+), anti-human Fc secondary
T1 construct: B7H3 on A375 and other B7H3-positive or transfected cells
T1 sequence: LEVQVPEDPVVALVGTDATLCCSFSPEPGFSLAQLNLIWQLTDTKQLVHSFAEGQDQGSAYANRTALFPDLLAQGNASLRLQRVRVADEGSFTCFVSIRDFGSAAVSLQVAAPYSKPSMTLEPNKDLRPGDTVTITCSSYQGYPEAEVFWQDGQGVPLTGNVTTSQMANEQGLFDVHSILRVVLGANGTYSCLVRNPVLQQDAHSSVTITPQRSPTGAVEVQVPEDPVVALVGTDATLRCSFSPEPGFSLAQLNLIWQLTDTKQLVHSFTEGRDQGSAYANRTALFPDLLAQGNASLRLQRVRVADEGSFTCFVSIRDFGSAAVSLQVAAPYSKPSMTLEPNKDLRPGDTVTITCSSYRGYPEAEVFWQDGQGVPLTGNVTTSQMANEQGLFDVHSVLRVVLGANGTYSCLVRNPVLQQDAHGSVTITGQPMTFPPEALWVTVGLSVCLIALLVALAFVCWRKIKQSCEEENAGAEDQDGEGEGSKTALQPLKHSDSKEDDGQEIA
Description: (§1) Binding of exemplary multispecific constructs containing an antigen-binding domain directed against B7H3 were assessed for binding to B7H3 positive A375 tumor cells or primary T-cells. The constructs were generated containing antigen-binding domain(s) that were either sdAbs or a FABs, and that were positioned either only N-terminal to the Fc or both N-terminal to the Fc and C-terminal to the anti-CD3 binding domain (see FIGS. 30A and 30C and Table E5). Among the various formats of constructs tested included: sdAb-Fc-dsFV-sdAb (cx3072, cx5952) sdAb-Fc-FV (cx6079), sdAb-Fc-dsFV (cs6080, cx6081), MAB-FV (cx5067) and MAB-dsFV (cx6083, cx6084), where the FV represents the anti-CD3 binding domain composed of VH and VL domain pairs and “ds” notes disulfide stabilized via an engineered interdomain disulfide bond.
(§2) Binding was assessed as described above via flow cytometry using a fluorophore-conjugated anti-human Fc secondary antibody. cx3072 bound to A375 cells with high affinity (FIG. 31A) but not to isolated T-cells (FIG. 31B). […] The B7H3 -targeting sdAb containing constructs (cx5952, cx6079, cx6080, and cx6081) bound to B7H3 positive cells with similar affinities (depicted in FIG. 31E), with cx5952 displaying higher maximal binding. cx6079, cx6080 and cx6081 contain two identical B7H3-targeting sdAbs, whereas cx5952, and cx3072 contain two distinct B7H3-targeting sdAb that bind different epitopes. The MAB-FV, cx5067, contains two identical B7H3-targeting FAB domains.

[2] = target: T2, CD3 on the surface of human T cells (human, UniProt P07766 23-207); assay: flow cytometry on primary human T cells, anti-human Fc secondary
T2 construct: whole, on cells; Part of the CD3/TCR complex on cells; also called CD3 epsilon
Description: as §1, §2

T2 sequence (P07766 23-207): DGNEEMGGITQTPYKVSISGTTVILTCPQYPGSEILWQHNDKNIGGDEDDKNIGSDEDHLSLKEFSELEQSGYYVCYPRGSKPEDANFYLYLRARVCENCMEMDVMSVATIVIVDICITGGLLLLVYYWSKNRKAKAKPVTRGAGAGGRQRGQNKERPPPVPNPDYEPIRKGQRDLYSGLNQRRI

B1: cx5067 (bispecific antibody)
chain 1: EVQLVESGGGLVQPGGSLRLSCAASGFTFSSFGMHWVRQAPGKGLEWVAYISSDSSAIYYADTVKGRFTISRDNAKNSLYLQMNSLRDEDTAVYYCGRGRENIYYGSRLDYWGQGTTVTVSSASTKGPSVFPLAPSSKSTSGGTAALGCLVKDYFPEPVTVSWNSGALTSGVHTFPAVLQSSGLYSLSSVVTVPSSSLGTQTYICNVNHKPSNTKVDKKVEPKSCDKTHTCPPCPAPPVAGPSVFLFPPKPKDTLMISRTPEVTCVVVDVKHEDPEVKFNWYVDGVEVHNAKTKPREEEYNSTYRVVSVLTVLHQDWLNGKEYKCKVSNKALPAPIEKTISKAKGQPREPQVYTLPPSREEMTKNQVSLTCDVSGFYPSDIAVEWESDGQPENNYKTTPPVLDSDGSFFLYSKLTVDKSRWEQGDVFSCSVMHEALHNHYTQKSLSLSPGKGGGGSGGGGSGGGGSEVQLVESGGGLVQPGGSLRLSCAASGFTFSTYAMNWVRQAPGKGLEWVGRIRSKYNNYATYYADSVKGRFTISRDDSKNTLYLQMNSLRAEDTAVYYCVRHGNFGDSYVSWFAYWGQGTLVTVSS
chain 2: EVQLVESGGGLVQPGGSLRLSCAASGFTFSSFGMHWVRQAPGKGLEWVAYISSDSSAIYYADTVKGRFTISRDNAKNSLYLQMNSLRDEDTAVYYCGRGRENIYYGSRLDYWGQGTTVTVSSASTKGPSVFPLAPSSKSTSGGTAALGCLVKDYFPEPVTVSWNSGALTSGVHTFPAVLQSSGLYSLSSVVTVPSSSLGTQTYICNVNHKPSNTKVDKKVEPKSCDKTHTCPPCPAPPVAGPSVFLFPPKPKDTLMISRTPEVTCVVVDVKHEDPEVKFNWYVDGVEVHNAKTKPREEQYNSTYRVVSVLTVLHQDWLNGKEYKCKVSNKALPAPIEKTISKAKGQPREPQVYTLPPSREQMTKNQVKLTCLVKGFYPSDIAVEWESNGQPENNYKTTPPVLDSDGSFFLYSKLTVDKSRWQQGNVFSCSVMHEALHNHYTQKSLSLSPGKGGGGSGGGGSGGGGSQAVVTQEPSLTVSPGGTVTLTCGSSTGAVTTSNYANWVQQKPGKSPRGLIGGTNKRAPGVPARFSGSLLGGKAALTISGAQPEDEADYYCALWYSNHWVFGGGTKLTVL
light: DIQLTQSPSFLSASVGDRVTITCKASQNVDTNVAWYQQKPGKAPKALIYSASYRYSGVPSRFSGSGSGTDFTLTISSLQPEDFATYYCQQYNNYPFTFGQGTKLEIKRTVAAPSVFIFPPSDEQLKSGTASVVCLLNNFYPREAKVQWKVDNALQSGNSQESVTEQDSKDSTYSLSSTLTLSKADYEKHKVYACEVTHQGLSSPVTKSFNRGEC
notes: anti-CD3 Fv not disulfide-stabilized; also called MAB-FV
binding result [1]: binds
binding result [2]: no binding

— patent publication US20230124851A1 (INHIBRX LNC, published 2023)
